The data set deals with the molecule itself. Briefly: crystal structure.

B1: mouse 2,4-Dienoyl-CoA reductase 1 (Decr1) (enzyme, UniProt Q9CQ62 35-335, looked up)
chain: SKDAPQSKFFQPVLKPMLPPDAFQGKVAFITGGGTGLGKAMTTFLSTLGAQCVIASRNIDVLKATAEEISSKTGNKVHAIRCDVRDPDMVHNTVLELIKVAGHPDVVINNAAGNFISPSERLTPNGWKTITDIVLNGTAYVTLEIGKQLIKAQKGAAFLAITTIYAESGSGFVMPSSSAKSGVEAMNKSLAAEWGRYGMRFNIIQPGPIKTKGAFSRLDPTGRFEKEMIDRIPCGRLGTMEELANLATFLCSDYASWINGAVIRFDGGEEVFLSGEFNSLKKVTKEEWDIIEGLIRKTKGS
On to B1, for which the “stoichiometry N” value is 4.

The record behind these values is paper doi:10.1101/2023.03.21.532770 (bioRxiv, 2023).
